T1: VvLBD13 (Vitis vinifera cv. Shine Muscat, UniProt D7SJL6 27-229)
T1 sequence: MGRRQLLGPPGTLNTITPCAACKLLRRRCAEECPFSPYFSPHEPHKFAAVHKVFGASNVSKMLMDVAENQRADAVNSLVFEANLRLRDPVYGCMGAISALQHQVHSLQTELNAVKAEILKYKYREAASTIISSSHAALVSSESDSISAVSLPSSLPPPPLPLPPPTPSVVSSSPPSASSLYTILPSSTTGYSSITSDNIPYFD

B1: VvXTH10 promoter probe (dsDNA)
DNA 1: TCGAGTGTTGCGGCTTTGAAAAATA
DNA 2: TATTTTTCAAAGCCGCAACACTCGA
B2: VvEXPLA1 promoter probe (dsDNA)
DNA 1: AATAGAGAAGCCCACACGTGAGCAA
DNA 2: TTGCTCACGTGTGGGCTTCTCTATT

Molecular target: T1, VvLBD13
Test: EMSA; with unlabeled cold probe competition; EMSA kit (Thermo 20148), 25 C, 30 min; buffer, salt and pH not stated
Conditions: protein: recombinant; tags: His (pET-32a(+)); chain copies: 2; label: 5' biotin; blunt

Binder | binding result
B1 | binds
B2 | binds

Reference: paper PMC11879436, “VvARF19 represses VvLBD13-mediated cell wall degradation to delay softening of grape berries”
